Assay results reported in patent publication US20230167458A1, “FORSKOLIN-INDUCIBLE PROMOTERS AND HYPOXIA-INDUCIBLE PROMOTERS” (ASKLEPIOS BIOPHARMACEUTICAL, INC., priority 2020, published 2023).
Entries after “also recorded” stand apart in the source; their conditions may differ.

System: C2C12 human muscle cell line
Assay: Luciferase expression from forskolin-inducible promoter, transient transfection in differentiated C2C12
Assay type: cell-based
Procedure: Luciferase readouts were normalised to β-galactosidase to produce normalised relative luminometer units (RLUs). β-galactosidase containing pcDNA6 plasmid was used as internal control for transfection efficiency (Thermofisher, V22020). β-galactosidase activity was measured as per manufacturer's instructions (Mammalian βGalactosidase Assay Kit, 75707/75710, Thermo Scientific) using 25 μl of lysate. 25 μl of lysate was transferred into a microplate well and mixed with 25 μl of β-galactosidase Assay Reagent, equilibrated to room temperature. The mixture was incubated at 37° C. for 30 min and absorbance measured at 405 nm.
The forskolin-inducible promoters were initially used to drive expression of luciferase in the Huh7 human liver cell line and the C2C12 […]. The promoter constructs were used to drive expression of luciferase in the PM-RQ plasmid. The tested promoters were synthesised directly upstream of the ATG of PM-RQ plasmid.
• Media was prewarmed at 37° C. before use • C2C12 Complete Medium was used to grow the cells before differentiation. […]
C2C12 cells were maintained at 37° C., 5% CO2. […] Detachment was monitored under the microscope. • 4 ml C2C12 Complete Medium was added to inactivate Trypsin and the cells were transferred into a 15 ml tube. • The cells were centrifuged for 3 mins at 250 RCF at room temperature. • The supernatant was aspirated • The cells were resuspended by gentle pipetting up and down in 6 ml C2C12 Complete Medium • The cells were counted in a haemocytometer by using trypan blue (Thermofisher, 15250061) to determine the how many of the cells were alive. Trypan blue stains dead cells in blue and this allows for them not to be counted. The cells were resuspended into trypan blue in ration of 1:10, e.g. 10 μl cells and 90 μl trypan blue and counted using a haemocytometer. • The cells were seeded in complete medium at a density dependent on the passage number. […] The abovementioned densities are experimentally determined for efficient differentiation and transfection. […]

B1: RTV-019: synthetic forskolin-inducible promoter, SEQ ID NO: 44; 3× ATF6, 4× AP1(1) and 3× HRE1 TFBS and CMV-MP (nucleic acid)
DNA: TGACGTGCTGATGATGCGTAGCTAGTAGTTGACGTGCTGATGATGCGTAGCTAGTAGTTGACGTGCTGATGATGCGTAGCTAGTAGTTGAGTCAGATGATGCGTAGCTAGTAGTTGAGTCAGATGATGCGTAGCTAGTAGTTGAGTCAGATGATGCGTAGCTAGTAGTTGAGTCAGATGATGCGTAGCTAGTAGTCTGCACGTAGATGATGCGTAGCTAGTAGTCTGCACGTAGATGATGCGTAGCTAGTAGTCTGCACGTAGATGATGCGTAGCTAGTAGTGCAGTTAGCGTAGCTGAGGTACCGTCGACGATATCGGATCCAGGTCTATATAAGCAGAGCTCGTTTAGTGAACCGTCAGATCGCCTAGATACGCCATCCACGCTGTTTTGACCTCCATAGAAGATCGCCACC
modifications: Synp-RTV-019
notes: 3× ATF6, 4× AP1(1) and 3× HRE1 TFBS and CMV-MP
For B1, which “luciferase activity following induction” value (C2C12, 20 µM forskolin) is on record?
The value was “high activity; also recorded: much higher activity”.

What about the “luciferase activity without induction (background)” value (C2C12, before addition of forskolin) of the same molecule?
The value was “low background activity”.

What about the “fold activation of promoter (luciferase activity)” value (C2C12 muscle cells, 20 µM forskolin, 24 hrs) of the same molecule?
Its value is 6 fold.
